Substitutions are numbered along the chain they refer to.

The source of these data is US20240247072A1 (KEYMED BIOSCIENCES, published 2024).

Sequences and labels used below:
B1: 4H6-A6 hybridoma antibody (antibody, V domains shown)
VH: QVQLKQSGPGLVQPSQKLSITCTVSGFSLTTYGVHWIRQSPVKGLEWLGVIWTTGVVDYNAAFISRLNITKDNSKSQIFFKMNSLQTNDTAMYYCARNSYYGNLYVMDYWGQGTSVTVSS
VL: DIVLTQSPASLPIFLGQRATISCRASRSVSASGYTFMHWYQQKPGQPPKLLIYLVSNLESGVPARFSGSGSGTDFTLNIHPVEEEDAATYYCQHSREFPLTFGAGTKLELK
notes: Mouse antibody in hybridoma culture supernatant
B2: 36E7-D6 hybridoma antibody (antibody, V domains shown)
VH: QVQLKQSGPGLVQPSQSLSITCTVSDFSLTIFGVHWVRQSPGKGLEWLGVIWRDGSTDYNAALMSRLNITKDNSKSQVFFKMNSLQTDDTAIYYCAKNRRYDYAWFPYWGQGTLVSVSA
VL: B1 VL with P12A, I13V, F14S, R27K, T35S, M37L, V55T, E97D, L100P
notes: as for B1
B3: 10C19-D11 hybridoma antibody (antibody, V domains shown)
VH: QVQLQQSGPGLVQPSQSLSITCTVSGFSLTTYAVHWFRQSPGQGLEWLGVIWSTGITDFNAAFISRLNINKDSSKSQIFFKMISLQPNDTAIYYCGRNSYYGNLYAMDYWGQGTSVTVSS
VL: B1 VL with A9T, P12A, I13V, F14S, R27K, T35N, V55A, G72E, E85G, F98L
notes: as for B1
B4: 1H21-D5 hybridoma antibody (antibody, V domains shown)
VH: QVQLKQSGPGLVQPSQSLSITCTVSGFSLTSYGIHWVRQSPGKGLEWLGVIWSGGSTDFNAAFISRLSISKDNSKSQVFFKVISLQANDTAIYYCGRNSYYGNLYAMDYWGQGTSVTVSS
VL: B1 VL with A9T, P12A, I13V, F14S, R27K, T35S, V55A, F98L
notes: as for B1
B5: 17A9-G5 hybridoma antibody (antibody, V domains shown)
VH: QVQLKQSGPGLVQPSQSLSITCTVSGFSLTTYGVHWVRQSPGKGLEWLGVIWSAGITDYNAPFISRLSITKDNSKSQVFFKMNSLQADDTAIYYCARNDYYGNLYAMDYWGQGTSVTVSS
VL: B1 VL with P12A, I13V, F14S, S26N, R27K, E59A, E84G
notes: as for B1
B6: 16J15-H3 hybridoma antibody (antibody, V domains shown)
VH: B5 VH with G26N, T30S, S53G, A54G, I56Y, P62A, S68T, T70S, D99N
VL: B1 VL with I13V, F14S, S26N, R27K, T35S, V55A, E59D, A87T
notes: as for B1
B7: 42H19-G4 hybridoma antibody (antibody, V domains shown)
VH: B2 VH with L11P, V34I, A61V
VL: B1 VL with P12A, I13V, F14S, R27K, T35S, M37L, V55T, E97D, L100P
notes: as for B1
B8: 27A3 chimeric antibody (antibody, V domains shown)
VH: EVQLQESGPGLVQPSQSLSITCTVSGFSLTTYAVHWVRQSPGKGLEWLGVIWSTGITDYNADFISRLSISKDNSKSQVFFKMDSLQSDDTAIYFCARNHYYGNLNAMDYWGQGTSVTVSS
VL: DIVLTQSPASLAVSLGQRATISCRASKSVSTSGYSFMHWYQQKPGQPPKLLIYLASNLESGVPARFSGSGSGTDFTLNIHPVEEEDAATYYCQHSRELPYTFGGGTKLEIK
B9: 14C12 chimeric antibody (antibody, V domains shown)
VH: EVQLQQSGPELVKPGASVKMSCKASGYTFTDYVIHWVKQKPGQGLEWIGYLHPYNDDTKYNEKFKGKATLTSDKSSSTAYMELSSLTSEDSAVYYCARRGYYDYAWFADWGQGTLVTVSA
VL: B8 VL with T31A, S35T, F36W, M37I, G45R, P47A, Y100P
B10: 2B12 chimeric antibody (antibody, V domains shown)
VH: B8 VH with E1Q, E6Q, D62A, D83N, T90I, F94Y, H99P
VL: B8 VL with S30D, Y100L, G104A, I110L
B11: 32D1 chimeric antibody (antibody, V domains shown)
VH: B9 VH with V18L, S84N
VL: B8 VL with R24K, T31A, S35T, F36W, P47A, Y100P
B12: 25H7 chimeric antibody (antibody, V domains shown)
VH: EIQLVQSGPELKKPGETVKISCKASGYTFTNYGMNWVKQTPGKGLKWMGWINTDTGEPTYADDFKGRFAFSLETSASTAYLQINNLKNEDMATYFCAREEDYRYVFNYWGQGTTLTVSS
VL: DIQMTQTTSSLSASLGDRVTISCRASQDISNYLNWYQQKPDGTVKLLIYYTSRLHSGVPSRFSGSGSGTDYSLTISNLEQEDIATYFCQQGVTLPLTFGAGTKLELK
B13: 26G11 chimeric antibody (antibody, V domains shown)
VH: QVQLQQSGPELVKPGASVKISCKTSGYTFADYTMHWVRQSQGKSLEWIGDIYPNDGGPNNNQKFKDKATLTVDKSSSTAYMELRSLTSEDSAVYYCARPFYYGNYAGFAFWGQGTLVTVSA
VL: EMVLTQSPAIMSASPGEKVTMTCSASSSVSYMYWYQQKPGSSPRLLIYDTSNLASGVPVRFSGSGSGTSYSLTISRMEAEDAATYYCQQWSSYPLTFGAGTRLEIK

One assay has as its target T1, recombinant trimeric protein of human CD70 extracellular region (human CD70 mIgG Fc (knob) / mouse IgG Fc … (human, UniProt P01863 98-330 = IgG part)).
T1 construct: The ELISA and Octet texts say only 'recombinant CD70 protein' / 'CM352 antigen'; also called recombinant human CD70 protein; recombinant CD70 protein
T1 chain 1: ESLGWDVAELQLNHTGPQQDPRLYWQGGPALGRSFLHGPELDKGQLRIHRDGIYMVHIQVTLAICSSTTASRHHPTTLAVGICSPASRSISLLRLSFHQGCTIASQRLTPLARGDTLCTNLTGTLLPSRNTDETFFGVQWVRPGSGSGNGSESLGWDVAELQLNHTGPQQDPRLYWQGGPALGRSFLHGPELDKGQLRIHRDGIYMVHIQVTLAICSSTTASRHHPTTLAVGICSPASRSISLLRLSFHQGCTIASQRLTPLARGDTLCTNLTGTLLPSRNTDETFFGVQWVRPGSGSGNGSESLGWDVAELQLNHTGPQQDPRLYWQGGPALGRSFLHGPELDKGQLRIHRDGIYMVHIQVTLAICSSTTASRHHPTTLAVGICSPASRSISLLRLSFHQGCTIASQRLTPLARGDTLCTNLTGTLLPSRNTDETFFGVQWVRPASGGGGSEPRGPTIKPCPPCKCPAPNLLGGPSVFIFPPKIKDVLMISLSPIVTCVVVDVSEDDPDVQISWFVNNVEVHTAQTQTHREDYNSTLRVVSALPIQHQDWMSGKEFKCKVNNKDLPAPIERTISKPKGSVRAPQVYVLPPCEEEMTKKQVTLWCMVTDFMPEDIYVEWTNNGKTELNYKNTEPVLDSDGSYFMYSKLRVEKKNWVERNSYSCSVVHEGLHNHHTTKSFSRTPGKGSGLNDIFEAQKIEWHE
T1 chain 2: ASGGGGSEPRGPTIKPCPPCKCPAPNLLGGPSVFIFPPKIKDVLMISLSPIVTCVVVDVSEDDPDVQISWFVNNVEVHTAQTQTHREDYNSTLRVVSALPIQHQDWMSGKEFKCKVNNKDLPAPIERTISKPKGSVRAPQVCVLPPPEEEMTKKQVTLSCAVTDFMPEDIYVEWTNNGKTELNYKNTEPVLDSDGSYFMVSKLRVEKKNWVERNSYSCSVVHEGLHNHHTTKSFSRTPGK
Description: ELISA binding, hybridoma supernatant, human CD70.
For B1, the binding result is listed as “binds”.

As for B2, the binding result was “binds”.

Turning to B3, the binding result is listed as “binds”.

In the case of B4, the binding result was “binds”.

In the case of B5, the binding result is on record as “binds”.

Regarding B6, the binding result is listed as “binds”.

As to B7, the binding result was “binds”.

A further assay addresses T2, human CD70, full length, on CHO cells (CHO-human CD70-B07) (human, UniProt P32970 1-193).
T2 construct: whole, on cells; Stably transfected CHO cells; also called CHO-CD70
T2 sequence (looked up): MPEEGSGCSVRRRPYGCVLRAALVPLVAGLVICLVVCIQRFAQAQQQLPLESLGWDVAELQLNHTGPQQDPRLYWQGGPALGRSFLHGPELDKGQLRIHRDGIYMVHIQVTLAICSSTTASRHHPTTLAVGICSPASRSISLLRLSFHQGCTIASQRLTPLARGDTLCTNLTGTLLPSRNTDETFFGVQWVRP
Kind of assay: flow cytometry, chimeric IgG on CHO-human CD70 cells. The method, then: (§1) Different cells in logarithmic growth phase were taken, blocked with 3% BSA for 30 minutes, and plated to a 96-well U-plate at 5×10⁴ cells/100 μL. The centrifuge was performed at 1100 rpm for 3 minutes. The supernatant was discarded and the cells were gently tapped to be loosening. 50 μL of gradient diluted antibody was added (antibody concentration: from 30 μg/mL, 3-fold dilution for 5 gradients) per well, and incubated at 4° C. for 1 hour. After incubation, 180 μL of 0.5% BSA was added to each well for washing 3 times. 30 μL/well of secondary antibody AlexaFluro647 anti-human IgG (Jackson Immuno Research, Cat. No: 109-606-170) was added and incubated at 4° C. for 45 minutes. At the end of the incubation, each well was washed 3 times with 180 μL of 0.5% BSA and finally resuspended in 50 μL of PBS for iQue (Intellicyt, USA) assay.
With B8, the response was half-maximal at 4.07 nM (EC50).

B9 showed an EC50 of 15 nM.

Molecule B10 returned an EC50 of 17.7 nM.

The molecule B11 registered an EC50 of 12.1 nM.

Consider B12, for which the EC50 is 16.1 nM.

In turn, B13 gave an EC50 of 22.5 nM.

A further assay has as its target T2, human CD70, full length, on CHO cells …. Description: flow cytometry, hybridoma supernatant, cell surface human CD70.
As to B1, the binding result was “binds”.

Regarding B2, the binding result was “binds”.

For B3, the binding result is “binds”.

In the case of B4, the binding result is on record as “binds”.

Take B5: the binding result is “binds”.

Turning to B6, the binding result is on record as “binds”.

On to B7, for which the binding result is given as “binds”.

A further assay has as its target T3, cynomolgus monkey CD70, full length, on CHO cells (CHO-monkey CD70-D01) (cynomolgus monkey, UniProt A0A2K5WTU9 1-190).
T3 construct: whole, on cells; Stably transfected CHO cells; also called CHO-cynomolgus monkey CD70
T3 sequence: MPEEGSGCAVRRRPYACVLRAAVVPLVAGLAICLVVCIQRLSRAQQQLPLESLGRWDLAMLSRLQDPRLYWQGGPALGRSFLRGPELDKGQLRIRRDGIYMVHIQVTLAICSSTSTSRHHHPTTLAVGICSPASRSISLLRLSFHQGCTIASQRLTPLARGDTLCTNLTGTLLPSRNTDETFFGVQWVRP
Description: flow cytometry, chimeric IgG on CHO-cynomolgus monkey CD70 cells. The method, then:
as §1
As for B12, the midpoint of the response, the EC50, lay at 17.4 nM.

With B13, the 50% effective concentration (EC50) amounted to 21 nM.

The next assay has as its target T1, recombinant trimeric protein of human …. Kind of assay: competition ELISA, chimeric IgG titrated, CD27 coated, biotin-CD70, human pair. The method, then:
(§2) The recombinant CD27 protein was coated at 1 μg/mL in a 96-well microtiter plate and incubated overnight at 4° C. The next day, the plate was washed 3 times with PBS, added with 200 μL of 2% defatted dry milk/PBS, blocked at room temperature for 2 hours, and washed once with PBS. The purified chimeric antibody was divided to 12 concentration gradients starting at 100 nM and diluted in a 1:3 gradient. […] of the antibody was added per well and incubated at room temperature for 30 minutes. […] The plate was washed 3 times with PBST and PBS and dried by spinning. A secondary antibody Streptavidin-coupled horseradish peroxidase SA-HRP (BD bioscience, cat. No: 6222697) was diluted with 0.5% BSA in a ratio of 1:8000. 100 μL of the diluent was added into each well and incubated at room temperature for 30 minutes. The plate was washed 3 times with PBST and PBS and dried by spinning. 100 μl of color development solution (TMB solution, Sigma, Cat. No: T2885) was added into each well and protected from light at 37° C. for reaction. After the substrate developed moderately, 50 μl of H₂SO₄ was added into each well to terminate the reaction. The OD450 nm was determined by using an enzyme-linked detector within 30 minutes, and the data was collected. The results were calculated by using Graph Pad Prism 5 software.
Take B8: the IC50 is 0.08 nM.

Take B9: the IC50 worked out at 0.1 nM.

B10: the IC50 turned out to be 0.11 nM.

On to B11, for which the IC50 came out at 0.1 nM.

For B12, the IC50 amounted to 0.16 nM.

For B13, the IC50 is 0.17 nM.

Another assay has as its target T4, recombinant cynomolgus monkey CD70 protein (cynomolgus monkey, UniProt A0A2K5WTU9 39-190).
T4 construct: it stands only in column heads ('Monkey', 'Cynomolgus Monkey CD70/CD27') and in result sentences; also called Monkey (ELISA)
T4 sequence: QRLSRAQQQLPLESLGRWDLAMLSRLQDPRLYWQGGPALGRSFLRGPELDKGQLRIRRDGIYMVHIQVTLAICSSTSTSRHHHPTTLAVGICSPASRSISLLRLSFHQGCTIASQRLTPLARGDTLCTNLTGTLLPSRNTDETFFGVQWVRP
Description: competition ELISA, chimeric IgG titrated, CD27 coated, biotin-CD70, cynomolgus pair. The protocol: as §2
With B12, the IC50 was found to be 0.15 nM.

Take B13: the IC50 came out at 0.21 nM.
